This is an account of results in IntAct's records for PubMed 31515488.

B1: 26S proteasome non-ATPase regulatory subunit 9 (Homo sapiens), O00233 (parent)
chain: MSDEEARQSGGSSQAGVVTVSDVQELMRRKEEIEAQIKANYDVLESQKGIGMNEPLVDCEGYPRSDVDLYQVRTARHNIICLQNDHKAVMKQVEEALHQLHARDKEKQARDMAEAHKEAMSRKLGQSESQGPPRAFAKVNSISPGSPASIAGLQVDDEIVEFGSVNTQNFQSLHNIGSVVQHSEGKPLNVTVIRRGEKHQLRLVPTRWAGKGLLGCNIIPLQR

Variants of B1 are the subject of one assay. The following applies: with prs6a_human PSMC3, P17980.
Chain of prs6a_human PSMC3, P17980 (P17980 whole entry): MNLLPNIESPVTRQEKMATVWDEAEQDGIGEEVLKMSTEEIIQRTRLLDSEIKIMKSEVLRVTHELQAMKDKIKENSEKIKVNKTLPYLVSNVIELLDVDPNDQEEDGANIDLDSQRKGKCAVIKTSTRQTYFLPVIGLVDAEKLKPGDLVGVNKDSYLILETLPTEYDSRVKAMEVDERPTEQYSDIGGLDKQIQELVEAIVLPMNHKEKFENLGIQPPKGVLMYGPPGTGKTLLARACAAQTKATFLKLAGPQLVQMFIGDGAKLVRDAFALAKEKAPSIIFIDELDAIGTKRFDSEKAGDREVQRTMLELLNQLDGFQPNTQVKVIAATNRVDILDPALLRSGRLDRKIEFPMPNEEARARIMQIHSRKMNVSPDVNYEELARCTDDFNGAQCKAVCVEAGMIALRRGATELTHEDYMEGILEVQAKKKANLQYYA
Take MSDEEARQSGGSSQAGVVTVSDVQELMRRKEEIEAQIKANYDVLESQKGIGMNEPLVDCEGYPRSDVDLYQVRTARHNIICLQNDHKAVMKQVEEALHQLHARDKEKQAWDMAEAHKEAMSRKLGQSESQGPPRAFAKVNSISPGSPASIAGLQVDDEIVEFGSVNTQNFQSLHNIGSVVQHSEGKPLNVTVIRRGEKHQLRLVPTRWAGKGLLGCNIIPLQR [R110W]: the “effect of a mutation on the interaction” value is reported as “with no effect”.

Regarding MSDEEARQSGGSSQAGVVTVSDVQELMRRKEEIEAQIKANYDVLESQKGIGMNEPLVDCEGYPRSDVDLYQVRTARHNIICLQNDHKAVMKQVEEALHQLHARDKEKQARDMAEAHKEAMSRKLGQSESQGPPRAFAKVNSISPGSPASIAGLQVDDEIVEFGSVNTQNFQSLHNIGSVVQHSEGKPLNVTVIRRGGKHQLRLVPTRWAGKGLLGCNIIPLQR [E197G], the “effect of a mutation on the interaction” value was “with no effect”.

The next assay covers variants of B1. The following applies: with prs10_human PSMC6, P62333.
Chain of prs10_human PSMC6, P62333 (P62333 whole entry): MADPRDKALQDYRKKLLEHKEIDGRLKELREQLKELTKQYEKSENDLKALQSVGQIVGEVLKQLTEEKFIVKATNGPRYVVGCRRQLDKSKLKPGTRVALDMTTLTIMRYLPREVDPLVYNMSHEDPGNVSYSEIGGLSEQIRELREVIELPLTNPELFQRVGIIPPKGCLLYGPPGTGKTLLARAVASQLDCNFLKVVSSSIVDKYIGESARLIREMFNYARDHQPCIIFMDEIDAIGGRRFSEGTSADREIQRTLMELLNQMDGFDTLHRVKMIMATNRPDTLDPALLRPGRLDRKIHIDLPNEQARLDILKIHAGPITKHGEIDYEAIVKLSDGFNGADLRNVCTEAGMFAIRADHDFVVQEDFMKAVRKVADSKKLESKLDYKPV
As to MSDEEARQSGGSSQAGVVTVSDVQELMRRKEEIEAQIKANYDVLESQKGIGMNEPLVDCEGYPRSDVDLYQVRTARHNIICLQNDHKAVMKQVEEALHQLHARDKEKQAWDMAEAHKEAMSRKLGQSESQGPPRAFAKVNSISPGSPASIAGLQVDDEIVEFGSVNTQNFQSLHNIGSVVQHSEGKPLNVTVIRRGEKHQLRLVPTRWAGKGLLGCNIIPLQR [R110W], the “effect of a mutation on the interaction” value was “with no effect”.

Variants of B1 are the subject of another assay. The following applies: with cc136_human CCDC136, Q96JN2.
Chain of cc136_human CCDC136, Q96JN2 (Q96JN2 whole entry): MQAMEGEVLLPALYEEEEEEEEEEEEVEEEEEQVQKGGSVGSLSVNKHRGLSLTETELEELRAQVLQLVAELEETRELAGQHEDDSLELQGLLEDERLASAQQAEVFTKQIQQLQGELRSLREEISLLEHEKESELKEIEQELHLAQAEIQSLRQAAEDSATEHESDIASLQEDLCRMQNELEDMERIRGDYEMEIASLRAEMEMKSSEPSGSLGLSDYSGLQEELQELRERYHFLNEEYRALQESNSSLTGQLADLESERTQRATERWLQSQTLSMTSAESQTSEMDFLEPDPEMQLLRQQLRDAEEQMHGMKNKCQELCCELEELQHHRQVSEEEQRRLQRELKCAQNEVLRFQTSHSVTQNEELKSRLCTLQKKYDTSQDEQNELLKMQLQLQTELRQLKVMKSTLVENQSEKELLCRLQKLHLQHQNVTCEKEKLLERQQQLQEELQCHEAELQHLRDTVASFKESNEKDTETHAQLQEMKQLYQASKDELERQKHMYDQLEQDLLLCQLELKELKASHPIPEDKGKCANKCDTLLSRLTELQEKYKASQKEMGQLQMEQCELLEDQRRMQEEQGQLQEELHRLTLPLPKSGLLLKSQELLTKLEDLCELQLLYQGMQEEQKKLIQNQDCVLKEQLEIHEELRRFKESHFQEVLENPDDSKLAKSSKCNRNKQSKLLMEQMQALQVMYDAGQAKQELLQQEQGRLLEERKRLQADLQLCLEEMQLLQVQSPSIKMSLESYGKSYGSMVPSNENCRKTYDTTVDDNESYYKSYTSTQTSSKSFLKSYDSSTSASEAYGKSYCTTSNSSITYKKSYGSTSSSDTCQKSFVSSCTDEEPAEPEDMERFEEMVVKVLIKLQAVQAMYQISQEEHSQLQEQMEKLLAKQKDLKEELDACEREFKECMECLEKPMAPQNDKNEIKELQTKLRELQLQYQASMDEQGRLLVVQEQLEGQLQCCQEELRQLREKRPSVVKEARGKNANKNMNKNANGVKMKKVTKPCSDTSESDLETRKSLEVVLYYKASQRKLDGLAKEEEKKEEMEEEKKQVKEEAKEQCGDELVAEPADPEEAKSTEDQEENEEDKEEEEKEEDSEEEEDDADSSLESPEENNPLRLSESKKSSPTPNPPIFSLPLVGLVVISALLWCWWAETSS
MSDEEARQSGGSSQAGVVTVSDVQELMRRKEEIEAQIKANYDVLESQKGIGMNEPLVDCEGYPRSDVDLYQVRTARHNIICLQNDHKAVMKQVEEALHQLHARDKEKQAWDMAEAHKEAMSRKLGQSESQGPPRAFAKVNSISPGSPASIAGLQVDDEIVEFGSVNTQNFQSLHNIGSVVQHSEGKPLNVTVIRRGEKHQLRLVPTRWAGKGLLGCNIIPLQR [R110W]: the “effect of a mutation on the interaction” value was “with no effect”.

Turning to MSDEEARQSGGSSQAGAVTVSDVQELMRRKEEIEAQIKANYDVLESQKGIGMNEPLVDCEGYPRSDVDLYQVRTARHNIICLQNDHKAVMKQVEEALHQLHARDKEKQARDMAEAHKEAMSRKLGQSESQGPPRAFAKVNSISPGSPASIAGLQVDDEIVEFGSVNTQNFQSLHNIGSVVQHSEGKPLNVTVIRRGEKHQLRLVPTRWAGKGLLGCNIIPLQR [V17A], the “effect of a mutation on the interaction” value was “with no effect”.

In another assay the parent is B1. The following applies: with spn90_human NCKIPSD.
As to MSDEEARQSGGSSQAGVVTVSDVQELMRRKEEIEAQIKANYDVLESQKGIGMNEPLVDCEGYPRSDVDLYQVRTARHNIICLQNDHKAVMKQVEEALHQLHARDKEKQAWDMAEAHKEAMSRKLGQSESQGPPRAFAKVNSISPGSPASIAGLQVDDEIVEFGSVNTQNFQSLHNIGSVVQHSEGKPLNVTVIRRGEKHQLRLVPTRWAGKGLLGCNIIPLQR [R110W], the “effect of a mutation on the interaction” value is on record as “with no effect”.

With MSDEEARQSGGSSQAGVVTVSDVQELMRRKEEIEAQIKANYDVLESQKGIGMNEPLVDCEGYPRSDVDLYQVRTARHNIICLQNDHKAVMKQVEEALHQLHARDKEKQARDMAEAHKEAMSRKLGQSESQGPPRAFAKVNSISPGSPASIAGLQVDDEIVEFGSVNTQNFQSLHNIGSVVQHSEGKPLNVTVIRRGGKHQLRLVPTRWAGKGLLGCNIIPLQR [E197G], the “effect of a mutation on the interaction” value was “with no effect”.
